B1: unnamed (protein)
chain 1: EVQLVQSGAEVKKPGESLRISCKGSGYSFSTYWISWVRQMPGKGLEWMGKIYPGDSYTNYSPSFQGQVTISADKSISTAYLQWSSLKASDTAMYYCSRGSGIFDYWGQGTLVTVSS
chain 2: SYELTQPPSVSVSPGQTASITCSGDNIGDQYAHWYQQKPGQSPVLVIYQDKNRPSGIPERFSGSNSGNTATLTISGTQAMDEADYYCATYTGFGSLAVFGGGTKLTVL
B2: unnamed (protein)
chain 1: EVQLVQSGAEVKKPGESLRISCKGSGYSFSTYWISWVRQMPGKGLEWMGKIYPGDSYTNYSPSFQGQVTISADKSISTAYLQWSSLKASDTAMYYCARGTGLFDYWGQGTLVTVSS
chain 2: SYELTQPPSVSVSPGQTASITCSGDNIGDQYAHWYQQKPGQSPVLVIYQDKNRPSGIPERFSGSNSGNTATLTISGTQAMDEADYYCATYTGFGSLAVFGGGTKLTVL
B3: unnamed (protein)
chain 1: EVQLVQSGAEVKKPGESLRISCKGSGYSFSTYWISWVRQMPGKGLEWMGKIYPGDSYTNYSPSFQGQVTISADKSISTAYLQWSSLKASDTAMYYCTRGVGIFDYWGQGTLVTVSS
chain 2: SYELTQPPSVSVSPGQTASITCSGDNIGDQYAHWYQQKPGQSPVLVIYQDKNRPSGIPERFSGSNSGNTATLTISGTQAMDEADYYCATYTGFGSLAVFGGGTKLTVL
B4: unnamed (protein)
chain 1: EVQLVQSGAEVKKPGESLRISCKGSGYSFSTYWISWVRQMPGKGLEWMGKIYPGDSYTNYSPSFQGQVTISADKSISTAYLQWSSLKASDTAMYYCARGIGLFDYWGQGTLVTVSS
chain 2: SYELTQPPSVSVSPGQTASITCSGDNIGDQYAHWYQQKPGQSPVLVIYQDKNRPSGIPERFSGSNSGNTATLTISGTQAMDEADYYCATYTGFGSLAVFGGGTKLTVL
B5: unnamed (protein)
chain 1: EVQLVQSGAEVKKPGESLRISCKGSGYSFSTYWISWVRQMPGKGLEWMGKIYPGDSYTNYSPSFQGQVTISADKSISTAYLQWSSLKASDTAMYYCSRGYGVFDYWGQGTLVTVSS
chain 2: SYELTQPPSVSVSPGQTASITCSGDNIGDQYAHWYQQKPGQSPVLVIYQDKNRPSGIPERFSGSNSGNTATLTISGTQAMDEADYYCATYTGFGSLAVFGGGTKLTVL
B6: unnamed (protein)
chain 1: EVQLVQSGAEVKKPGESLRISCKGSGYSFSTYWISWVRQMPGKGLEWMGKIYPGDSYTNYSPSFQGQVTISADKSISTAYLQWSSLKASDTAMYYCARGVGIFDYWGQGTLVTVSS
chain 2: SYELTQPPSVSVSPGQTASITCSGDNIGDQYAHWYQQKPGQSPVLVIYQDKNRPSGIPERFSGSNSGNTATLTISGTQAMDEADYYCATYTGFGSLAVFGGGTKLTVL
B7: unnamed (protein)
chain 1: EVQLVQSGAEVKKPGESLRISCKGSGYSFSTYWISWVRQMPGKGLEWMGKIYPGDSYTNYSPSFQGQVTISADKSISTAYLQWSSLKASDTAMYYCTRGYGVFDYWGQGTLVTVSS
chain 2: SYELTQPPSVSVSPGQTASITCSGDNIGDQYAHWYQQKPGQSPVLVIYQDKNRPSGIPERFSGSNSGNTATLTISGTQAMDEADYYCATYTGFGSLAVFGGGTKLTVL
B8: unnamed (protein)
chain 1: EVQLVQSGAEVKKPGESLRISCKGSGYSFSTYWISWVRQMPGKGLEWMGKIYPGDSYTNYSPSFQGQVTISADKSISTAYLQWSSLKASDTAMYYCARGIGIFDYWGQGTLVTVSS
chain 2: SYELTQPPSVSVSPGQTASITCSGDNIGDQYAHWYQQKPGQSPVLVIYQDKNRPSGIPERFSGSNSGNTATLTISGTQAMDEADYYCATYTGFGSLAVFGGGTKLTVL
B9: unnamed (protein)
chain 1: EVQLVQSGAEVKKPGESLRISCKGSGYSFSTYWISWVRQMPGKGLEWMGKIYPGDSYTNYSPSFQGQVTISADKSISTAYLQWSSLKASDTAMYYCTRGSGLFDYWGQGTLVTVSS
chain 2: SYELTQPPSVSVSPGQTASITCSGDNIGDQYAHWYQQKPGQSPVLVIYQDKNRPSGIPERFSGSNSGNTATLTISGTQAMDEADYYCATYTGFGSLAVFGGGTKLTVL
B10: unnamed (protein)
chain 1: EVQLVQSGAEVKKPGESLRISCKGSGYSFSTYWISWVRQMPGKGLEWMGKIYPGDSYTNYSPSFQGQVTISADKSISTAYLQWSSLKASDTAMYYCARGVGLFDYWGQGTLVTVSS
chain 2: SYELTQPPSVSVSPGQTASITCSGDNIGDQYAHWYQQKPGQSPVLVIYQDKNRPSGIPERFSGSNSGNTATLTISGTQAMDEADYYCATYTGFGSLAVFGGGTKLTVL
B11: unnamed (protein)
chain 1: EVQLVQSGAEVKKPGESLRISCKGSGYSFSTYWISWVRQMPGKGLEWMGKIYPGDSYTNYSPSFQGQVTISADKSISTAYLQWSSLKASDTAMYYCTRGVGLFDYWGQGTLVTVSS
chain 2: SYELTQPPSVSVSPGQTASITCSGDNIGDQYAHWYQQKPGQSPVLVIYQDKNRPSGIPERFSGSNSGNTATLTISGTQAMDEADYYCATYTGFGSLAVFGGGTKLTVL
B12: unnamed (protein)
chain 1: EVQLVQSGAEVKKPGESLRISCKGSGYSFSTYWISWVRQMPGKGLEWMGKIYPGDSYTNYSPSFQGQVTISADKSISTAYLQWSSLKASDTAMYYCARGWGVFDYWGQGTLVTVSS
chain 2: SYELTQPPSVSVSPGQTASITCSGDNIGDQYAHWYQQKPGQSPVLVIYQDKNRPSGIPERFSGSNSGNTATLTISGTQAMDEADYYCATYTGFGSLAVFGGGTKLTVL
B13: unnamed (protein)
chain 1: QVQLVQSGAEVKKPGASVKVSCKASGYTFTSNWIHWVKQAPGQGLEWMGEIYPGNSNTNYNENFRNKVTMTVDTSISTAYMELSRLRSDDTAVYYCTRVSYGEPYFDYWGQGTLVTVSS
chain 2: QIVLTQSPGTLSLSPGERATMTCTASSSVSSSYFHWYQQKPGQAPRLWIYRTSRLASGVPDRFSGSGSGTDFTLTISRLEPEDAATYYCHQFHRSPLTFGAGTKLEIK
B14: unnamed (protein)
chain 1: QVQLVQSGAEVKKPGASVKVSCKASGYTFTSAWIHWVKQAPGQGLEWMGEIYPGNSNTNYNENFRNKVTMTVDTSISTAYMELSRLRSDDTAVYYCTRVRYGEPYFDYWGQGTLVTVSS
chain 2: QIVLTQSPGTLSLSPGERATMTCTASSSVSSSYFHWYQQKPGQAPRLWIYRTSRLASGVPDRFSGSGSGTDFTLTISRLEPEDAATYYCHQFHRSPLTFGAGTKLEIK
B15: unnamed (protein)
chain 1: QVQLVQSGAEVKKPGASVKVSCKASGYSFTSSWIHWVKQAPGQGLEWMGEIYPGNSNTNYNENFRNKVTMTVDTSISTAYMELSRLRSDDTAVYYCTRVRYGEPYFDYWGQGTLVTVSS
chain 2: QIVLTQSPGTLSLSPGERATMTCTASSSVSSSYFHWYQQKPGQAPRLWIYRTSRLASGVPDRFSGSGSGTDFTLTISRLEPEDAATYYCHQFHRSPLTFGAGTKLEIK
B16: unnamed (protein)
chain 1: QVQLVQSGAEVKKPGASVKVSCKASGYTFTSSWIHWVKQAPGQGLEWMGEIYPGNSNTNYNENFRNKVTMTVDTSISTAYMELSRLRSDDTAVYYCTRVQYGEPYFDYWGQGTLVTVSS
chain 2: QIVLTQSPGTLSLSPGERATMTCTASSSVSSSYFHWYQQKPGQAPRLWIYRTSRLASGVPDRFSGSGSGTDFTLTISRLEPEDAATYYCHQFHRSPLTFGAGTKLEIK
B17: unnamed (protein)
chain 1: QVQLVQSGAEVKKPGASVKVSCKASGYTFTSSWIHWVKQAPGQGLEWMGEIYPGNSNTNYNENFRNKVTMTVDTSISTAYMELSRLRSDDTAVYYCTRVRFGEPYFDYWGQGTLVTVSS
chain 2: QIVLTQSPGTLSLSPGERATMTCTASSSVSSSYFHWYQQKPGQAPRLWIYRTSRLASGVPDRFSGSGSGTDFTLTISRLEPEDAATYYCHQFHRSPLTFGAGTKLEIK
B18: unnamed (protein)
chain 1: QVQLVQSGAEVKKPGASVKVSCKASGYTFTSNWIHWVKQAPGQGLEWMGEIYPGNSNTNYNENFRNKVTMTVDTSISTAYMELSRLRSDDTAVYYCTRVRYGYPYFDYWGQGTLVTVSS
chain 2: QIVLTQSPGTLSLSPGERATMTCTASSSVSSSYFHWYQQKPGQAPRLWIYRTSRLASGVPDRFSGSGSGTDFTLTISRLEPEDAATYYCHQFHRSPLTFGAGTKLEIK
B19: unnamed (protein)
chain 1: QVQLVQSGAEVKKPGASVKVSCKASGYSFTSSWIHWVKQAPGQGLEWMGEIYPGNSNTNYNENFRNKVTMTVDTSISTAYMELSRLRSDDTAVYYCTRVQYGEPYFDYWGQGTLVTVSS
chain 2: QIVLTQSPGTLSLSPGERATMTCTASSSVSSSYFHWYQQKPGQAPRLWIYRTSRLASGVPDRFSGSGSGTDFTLTISRLEPEDAATYYCHQFHRSPLTFGAGTKLEIK
B20: unnamed (protein)
chain 1: QVQLVQSGAEVKKPGASVKVSCKASGYTFTSNWIHWVKQAPGQGLEWMGEIYPGNSNTNYNENFRNKVTMTVDTSISTAYMELSRLRSDDTAVYYCTRVRYGEPYFDYWGQGTLVTVSS
chain 2: QIVLTQSPGTLSLSPGERATMTCTASSSVSSSYFHWYQQKPGQAPRLWIYRTSRLASGVPDRFSGSGSGTDFTLTISRLEPEDAATYYCHQFHRSPLTFGAGTKLEIK

These binders were tested against TNFRSF9, Q07011 (assay: Kd (SPR)).

Binder | Kd [nM]
B1 | 295
B2 | 95.6
B3 | 92.3
B4 | 175
B5 | 130
B6 | 158
B7 | 96.2
B8 | 128
B9 | 225
B10 | 153
B11 | 141
B12 | 122

What follows are binders tested against IL36R (assay: Kd (SPR)).

Binder | Kd [nM]
B13 | 11
B14 | 0.757
B15 | 0.933
B16 | 2.76
B17 | 1.03
B18 | 1.35
B19 | 1.16
B20 | 14.6

Source: the FLAb antibody collection (doi:10.1101/2023.12.08.570889)
